Substrate in series [1]: OCc1ccccc1O[C@@H]1O[C@H](CO)[C@@H](O)[C@H](O)[C@H]1O
The experiment in a line: DNS reducing sugar assay, Michaelis-Menten / Lineweaver-Burk fit. It is filed as biochemical, Paenibacillus polymyxa. The settings on record: 50 °C, pH 7.0, bacterial supernatant. From the text: DNS reducing sugar assay, Michaelis-Menten / Lineweaver-Burk fit on BglA

Substrate in series [2]: OCc1ccccc1O[C@@H]1O[C@H](CO)[C@@H](O)[C@H](O)[C@H]1O
Described as above. It is filed as biochemical, Paenibacillus polymyxa. Conditions: 50 °C, pH 7.0, bacterial supernatant. From the text:
DNS reducing sugar assay, Michaelis-Menten / Lineweaver-Burk fit on BglB
This is another data set of the same source.

B1: BglA (Paenibacillus polymyxa) (protein)
chain: MTIFQFPQDFMWGTATAAYQIEGAYQEDGRGLSIWDTFAHTPGKVFNGDNGNVACDSYHRYEEDIRLMKELGIRTYRFSVSWPRIFPNGDGEVNQEGLDYYHRVVDLLNDNGIEPFCTLYHWDLPQALQDAGGWGNRRTIQAFVQFAETMFREFHGKIQHWLTFNEPWCIAFLSNMLGVHAPGLTNLQTAIDVGHHLLVAHGLSVRRFRELGTSGQIGIAPNVSWAVPYSTSEEDKAACARTISLHSDWFLQPIYQGSYPQFLVDWFAEQGATVPIQDGDMDIIGEPIDMIGINYYSMSVNRFNPEAGFLQSEEINMGLPVTDIGWPVESRGLYEVLHYLQKYGNIDIYITENGACINDEVVNGKVQDDRRISYMQQHLVQVHRTIHDGLHVKGYMAWSLLDNFEWAEGYNMRFGMIHVDFRTQVRTPKESYYWYRNVVSNNWLETRR
notes: amplified from yak rumen metagenomic DNA; usp45 signal peptide, pMG36e, secreted by L. lactis NZ9000; about 55 kDa; gene 1361 bp; supernatant / TCA-acetone precipitate
For the protein B1, in series [1], the Km (commonly the concentration of substrate that gives half-maximal velocity) was 38.61 µmol/L; the Vmax (as a rule, the top rate of the reaction or transport when substrate is in excess) amounted to 1340 µmol/min/mg; the turnover number (kcat) – broadly, the number of substrate molecules converted per active site and unit of time at saturation – stood at 435 s⁻¹; the kcat/Km (in general, the turnover number divided by the Michaelis constant) amounted to 1.13e+07 M⁻¹ s⁻¹.

B2: BglB (Paenibacillus polymyxa) (protein)
chain: NTFIFPATFMWGTSTSSYQIEGGTDEGGRTPSIWDTFCQIPGKVIGGDCGDVACDHFHHFKEDVQLMKQLGFLHYRFSVAWPRIMPAAGIINEEGLLFYEHLLDEIELAGLIPMLTLYHWDLPQWIEDEGGWTQRETIQHFKTYASVIMDRFGERINWWNTINEPYCASILGYGTGEHAPGHENWREAFTAAHHILMCHGIASNLHKEKGLTGKIGITLNMEHVDAASERPEDVAAAIRRDGFINRWFAEPLFNGKYPEDMVEWYGTYLNGLDFVQPGDMELIQQPGDFLGINYYTRSIIRSTNDASLLQVEQVHMEEPVTDMGWEIHPESFYKLLTRIEKDFSKGLPILITENGAAMRDELVNGQIEDTGRHGYIEEHLKACHRFIEEGGQLKGYFVWSFLDNFEWAWGYSKRFGIVHINYETQERTPKQSALWFKQMMAKNGF
notes: as for B1
On to B2, for which, in series [2], the Km was 43.99 µmol/L, the maximum rate (Vmax) came out at 1250 µmol/min/mg, the turnover number (kcat) is 349 s⁻¹ and the specificity constant (kcat/Km) was 7.93e+06 M⁻¹ s⁻¹.

(Values after PMC10305218, “Expression of β-Glucosidases from the Yak Rumen in Lactic Acid Bacteria: A Genetic Engineering Approach” (Microorganisms, 2023).)
